Earlier results on one substance are cited in publication PMC11430116.

The target of this data set is VDAC1 (Homo sapiens) (UniProt P21796).
Chain of UniProt P21796 (P21796 2-283): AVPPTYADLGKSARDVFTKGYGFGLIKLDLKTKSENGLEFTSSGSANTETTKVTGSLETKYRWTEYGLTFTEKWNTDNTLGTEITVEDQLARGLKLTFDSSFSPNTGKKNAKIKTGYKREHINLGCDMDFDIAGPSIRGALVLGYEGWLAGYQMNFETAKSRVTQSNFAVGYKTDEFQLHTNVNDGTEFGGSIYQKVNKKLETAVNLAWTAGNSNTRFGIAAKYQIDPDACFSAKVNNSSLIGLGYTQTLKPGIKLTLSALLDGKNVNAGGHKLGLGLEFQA

For the substance MAVS (from UniProt Q7Z434), the Kd was 950 nM.

Usually Kd stands for the equilibrium constant for the complex coming apart.
